{"source": "patent US20030100501A1", "about": "(CASE WESTERN RESERVE UNIVERSITY, published 2003)", "key": {"[1]": {"target": "wild-type CFTR (cystic fibrosis transmembrane conductance regulator) (UniProt P13569 1-1480, limits assumed)", "sequence (P13569 whole entry)": "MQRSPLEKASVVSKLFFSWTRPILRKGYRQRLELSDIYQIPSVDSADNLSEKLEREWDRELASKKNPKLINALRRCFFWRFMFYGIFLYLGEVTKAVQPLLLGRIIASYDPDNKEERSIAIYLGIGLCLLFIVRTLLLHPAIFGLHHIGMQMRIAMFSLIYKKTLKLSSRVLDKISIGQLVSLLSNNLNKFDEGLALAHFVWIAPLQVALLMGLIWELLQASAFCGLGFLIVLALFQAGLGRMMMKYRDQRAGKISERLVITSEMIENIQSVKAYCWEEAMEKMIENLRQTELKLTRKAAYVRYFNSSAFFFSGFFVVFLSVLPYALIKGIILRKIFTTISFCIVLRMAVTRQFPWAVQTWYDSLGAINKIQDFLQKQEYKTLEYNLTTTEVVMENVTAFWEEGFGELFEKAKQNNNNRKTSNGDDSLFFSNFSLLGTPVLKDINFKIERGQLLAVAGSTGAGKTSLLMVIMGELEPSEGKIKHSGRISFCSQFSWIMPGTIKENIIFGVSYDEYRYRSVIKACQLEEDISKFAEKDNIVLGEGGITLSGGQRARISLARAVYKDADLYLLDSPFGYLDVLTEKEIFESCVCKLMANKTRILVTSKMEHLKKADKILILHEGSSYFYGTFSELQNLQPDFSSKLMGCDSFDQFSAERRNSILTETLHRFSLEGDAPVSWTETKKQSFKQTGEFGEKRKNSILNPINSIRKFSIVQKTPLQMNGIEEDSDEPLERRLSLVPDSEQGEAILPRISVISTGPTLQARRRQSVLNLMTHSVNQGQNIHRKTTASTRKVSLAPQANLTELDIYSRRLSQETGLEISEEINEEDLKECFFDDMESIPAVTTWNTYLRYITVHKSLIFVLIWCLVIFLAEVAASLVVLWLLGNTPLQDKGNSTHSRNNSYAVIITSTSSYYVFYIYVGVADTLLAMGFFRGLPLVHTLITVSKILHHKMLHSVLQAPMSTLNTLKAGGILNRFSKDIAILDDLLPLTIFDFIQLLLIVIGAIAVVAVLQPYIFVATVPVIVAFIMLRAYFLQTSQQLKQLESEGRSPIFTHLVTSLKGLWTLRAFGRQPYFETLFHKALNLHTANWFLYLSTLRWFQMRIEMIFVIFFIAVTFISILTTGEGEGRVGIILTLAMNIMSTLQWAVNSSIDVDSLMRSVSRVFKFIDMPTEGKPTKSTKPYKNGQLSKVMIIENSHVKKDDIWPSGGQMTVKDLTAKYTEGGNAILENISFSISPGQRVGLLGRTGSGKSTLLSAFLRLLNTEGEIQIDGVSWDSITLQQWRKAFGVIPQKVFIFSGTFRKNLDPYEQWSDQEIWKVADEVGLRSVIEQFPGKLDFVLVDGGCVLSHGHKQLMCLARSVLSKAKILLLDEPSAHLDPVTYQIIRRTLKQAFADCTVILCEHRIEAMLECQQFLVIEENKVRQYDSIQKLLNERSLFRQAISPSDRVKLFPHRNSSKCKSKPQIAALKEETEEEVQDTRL", "experiment": "cell-based or functional assay"}, "[2]": {"target": "mutant G551D CFTR (UniProt P13569 1-1480, limits assumed)", "sequence (P13569 whole entry G551D)": "as the sequence (P13569 whole entry) above, with G551D counted along it", "experiment": "cell-based or functional assay"}}, "note": "Square brackets hold non-standard residues; d marks the D form. Ends that are not written are not given here. Nle = CCCC[C@H](N)C(=O)O"}
{"binder": "Ac-GLEISEQINQQNLKQSFFND[Nle]E", "note": "[Q4N2NEG2 polypeptide]", "values": [{"measurement": "open probability (Po) of CFTR channels in planar lipid bilayer", "setting": "[1]", "value": 2, "unit": "fold"}, {"measurement": "open probability of single wt-CFTR channels in planar lipid bilayer, 4 µM peptide, 5 experiments", "setting": "[1]", "value": "~2", "unit": "fold"}, {"measurement": "open probability in planar lipid bilayer", "setting": "[2]", "value": "~3", "unit": "fold"}]}
